{"source": "patent US20100233154A1", "about": "“TARGETED BINDING AGENTS DIRECTED TO HEPARANASE AND USES THEREOF 463” (MedImmune Limited, priority 2008, published 2010)", "molecules": {"B1": {"name": "10E9.1: fully human anti-heparanase monoclonal antibody, G2κ; VH SEQ ID NO 2, VL SEQ ID NO 4; ATCC PTA-9489 (antibody, listed as Homo Sapiens, V domains shown)", "VH": "QVQLVQSGAEVKKPGASVKVSCKVSGYSLTELSIHWVRQAPGKGLEWMGGFDPEDGEIIFAQKFQGRVTLTEDISLDTAYMEVSSLRSEDTAVYYCATEGHDSGDYVGYYYYGLDVWGQGTTVTVSS", "VL": "DIQMTQSPSSLSASVGDRVTITCRASQDIRNFLAWYQQKPGKLPKLLIYAASTLQSGVPSRFSGSGSGTDFTLTISSLQPEDVASYYCQSHNSVPFTFGPGTKVDIR", "notes": "fully human anti-heparanase monoclonal antibody, G2κ; ATCC PTA-9489"}}, "key": {"[1]": {"system": "MDA MB231-Hpa1#4 cells", "test": "Heparanase expression in cells cultured with antibody (Western blot)", "assay_type": "cell-based, human", "details": "25 μg per ml antibody, 72 hrs, compared to untreated or IgG2 control", "procedure": "MDA MB231-Hpa1#4 cells were cultured in the presence of 25 μg per ml anti-human heparanase antibody or control IgG2 antibody (Sigma Cat. No. 1504-1MG) for 72 hrs. Following the removal of culture medium, protein extracts were prepared from the cells in 100 μl RIPA buffer and separated on […] gels and transferred to nitrocellulose as described above. Western blots were probed with an anti-heparanase antibody that detected only pro-heparanase (SantaCruz Cat. No. SC25825)."}, "[2]": {"system": "MCF7-Hpa1#19 xenograft", "test": "Subcutaneous xenograft tumour growth, MCF7-Hpa1#19", "assay_type": "in vivo, SCID mice", "details": "once weekly i.p.; 10E9.1 at 7.5 or 15 mg per kg", "procedure": "(§1) MCF7-Hpa1#19 and HCT116 tumour cells were harvested from sub-confluent cultures. A total of 5×10^6 (MCF7-Hpa1#19) or 10^7 (HCT116) tumour cells were inoculated subcutaneously into the flank of male SCID mice. HCT116 tumour cells were implanted in PBS; […] cells were implanted in PBS containing 50% matrigel.\n(§2) When tumours had attained ˜200 mm^3, tumour bearing mice were randomised into treatment groups and dosed with the following; PBS; an isotype matched control IgG2 antibody, 15 mg per kg; anti-heparanase antibody 10E9.1, 7.5 or 15 mg per kg. All treatments were administered once weekly i.p. Tumour growth was measured twice per week using calipers and tumour volumes calculated according to an ellipsoid volume is formula (3.142/6×length×width×width) from measures of the largest tumour diameter and two opposing widths (FIG. 11)."}, "[3]": {"system": "HCT116 human colorectal tumour cells", "test": "FACS binding to cell surface heparanase, HCT116", "assay_type": "cell-based", "details": "5 or 10 μg per ml, 2 hrs at 37° C.", "procedure": "Although heparanase is found as a secreted protein, a proportion of heparanase is found in conjunction with cell surface heparan sulfate. The ability of anti-human heparanase antibodies to bind to cell surface heparanase was tested in a FACS assay. HT1080 human fibrosarcoma cells, HCT116 human colorectal tumour cells and B16F10 AP3 murine melanoma cells were each seeded into 6-well plates and cultured for 48 hrs prior to the addition of anti-heparanase antibody 10E9.1 or control IgG2 antibody (Sigma Cat. No. 1504-1MG). Antibodies were added to the cells to a final concentration of 5 or 10 μg per ml and incubated with the cells for 2 hrs at 37° C. The cells were then washed with phosphate buffered saline (PBS) and harvested by incubation with trypsin. The cells were pelleted by centrifugation and resuspended in 0.5 ml PBS, 0.1% BSA containing 1/200 dilution of AlexaFluor 488 anti-human IgG. The cells were incubated for 1 hr at room temperature, washed with PBS/BSA, resuspended in PBS and analysed by FACS. […] The differences likely reflect a lower affinity for murine heparanase in addition to any differences in absolute heparanase expression."}, "[4]": {"system": "MCF7-Hpa1#19 cells", "test": "Accumulation of precursor heparanase in conditioned medium and cell lysates (Western blot)", "assay_type": "cell-based, human", "details": "25 μg per ml, 24 hrs", "procedure": "MCF7-Hpa1#19 cells were cultured until confluent and then grown overnight (˜12 hrs) at 37° C. in serum free medium. Following overnight incubation, culture medium was replaced with serum free medium containing 25 μg per ml anti-heparanase monoclonal antibody 10E9.1 or a control IgG2 antibody (Sigma Cat. No. 1504-1MG) and incubated for a further 24 hrs at 37° C. Cell cultures were then treated for 2 hrs with PMA 0.1-10 μM, to stimulate heparanase expression (Sasaki N et al, J Immunol. 172: 3830, 2004). Conditioned medium from the cultures was harvested and concentrated 10-fold and protein lysates in RIPA buffer were prepared from the cells. Proteins from conditioned medium or cell lysates were separated on […] gels as described previously and heparanase was detected using an anti-heparanase polyclonal antibody (Biochain Cat. No. Z5010104)."}, "[5]": {"system": "HCT116 xenograft", "test": "Subcutaneous xenograft tumour growth, HCT116", "assay_type": "in vivo, SCID mice", "details": "once weekly i.p.; 10E9.1 at 15 mg per kg", "procedure": "as §1, §2"}, "[6]": {"biological_target": "T1, cell surface heparanase of parental MCF7 or MCF7-Hpa1#19 cells (Homo sapiens, UniProt Q9Y251)", "T1 construct": "an expression construct comprising a full-length human heparanase cDNA under the control of a CMV promoter; expressed in transfected cells; host or cells: MCF7-Hpa1#19 (pCR3.1 vector, CMV promoter); parental MCF7 cells run alongside carry only low endogenous heparanase", "T1 sequence (Q9Y251 158-543)": "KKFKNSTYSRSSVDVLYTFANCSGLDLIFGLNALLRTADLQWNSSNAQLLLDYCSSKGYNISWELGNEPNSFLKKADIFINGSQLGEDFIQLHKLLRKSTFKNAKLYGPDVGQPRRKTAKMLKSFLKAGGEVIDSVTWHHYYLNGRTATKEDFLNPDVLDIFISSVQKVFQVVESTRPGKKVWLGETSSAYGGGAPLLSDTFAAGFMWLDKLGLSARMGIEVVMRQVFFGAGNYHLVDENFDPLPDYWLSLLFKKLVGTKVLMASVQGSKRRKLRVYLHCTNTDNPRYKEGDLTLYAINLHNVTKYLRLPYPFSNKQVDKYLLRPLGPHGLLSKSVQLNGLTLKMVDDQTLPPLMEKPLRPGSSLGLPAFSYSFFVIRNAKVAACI", "T1 sequence (Q9Y251 36-109)": "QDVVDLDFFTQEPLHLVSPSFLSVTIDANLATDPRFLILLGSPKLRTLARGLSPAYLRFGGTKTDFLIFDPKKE", "test": "Cell surface heparanase activity assay", "assay_type": "cell-based", "details": "5 or 25 μg per ml", "procedure": "Cell surface heparanase activity was measured by a modification of the methodology used in the recombinant enzyme screen (Example 4). Parental MCF7 or MCF7-Hpa1#19 cells were cultured in non-tissue culture (non-adherent) 96-well plates, seeded at 10^6 cells per well. After overnight incubation at 37° C. anti-heparanase 10E9.1 or control IgG2 (Sigma Cat. 1504-1MG) antibodies were added to the cells, to a final concentration of 0.04-25 μg per ml, and incubated for 1 hr at room temperature. Thereafter Biotin Heparan Sulfate Europium Criptate (CisBio Cat. No. 61BHSKAA) was added to the cells (final concentration 20 ng per ml) and incubated at 37° C. for 1 hr. Degradation of the heparan sulfate substrate was determined following the addition of Streptavidin-XL665 (final concentration 250 ng per ml; CisBio Cat. No. 611SAXLA) to the cells and fluorescence measured using excitation at 330 nm and emission at 670 nm. In the absence of anti-heparanase antibody or in the presence of control IgG2, the minimum fluorescence at 670 nm is the result of degradation of heparan sulfate (see FIG. 10)."}}, "data": [{"molecule": "B1", "values": [{"measurement": "Inhibition of heparanase expression", "setting": "[1]", "result": "significant inhibition of heparanase expression"}, {"measurement": "Tumour growth inhibition", "setting": "[2]", "result": "not inhibited"}, {"measurement": "Binding to cells by FACS", "setting": "[3]", "result": "bind extensively"}, {"measurement": "Accumulation of precursor (65 kDa) heparanase in the culture medium", "setting": "[4]; compared to control IgG2", "result": "accumulation of precursor (65 kDa) heparanase in the culture medium"}, {"measurement": "PMA-stimulated increase in intracellular heparanase", "setting": "[4]; then PMA 0.1-10 μM 2 hrs", "result": "appeared to be attenuated"}, {"measurement": "Tumour growth inhibition", "setting": "[5]", "result": "not inhibited"}, {"measurement": "Inhibition of cell surface heparanase activity", "setting": "[6]", "result": "complete inhibition of cell surface heparanase activity"}]}]}
